In patent US20260183411A1, “TARGETING SORTILIN” (priority 2024, published 2026):
Where no end group is shown, it is not given here. [ ]: non-standard residue; d: D form. Cba = N[C@@H](CC1CCC1)C(=O)O; Tle = CC(C)(C)[C@H](N)C(=O)O

Legend:
[1] = Maximum tolerated dose (MTD) study; format: in vivo, mouse; details: 10 mg/kg i.v. single dose
Description: BALB/c Nude mice, female, 6-8 weeks, weighing approximately 18-22 g were purchased from the Shanghai SLAC Laboratory Animal Co., LTD. MTD studies were conducted at WuXi AppTec and the care and use of animals was conducted in accordance with the regulations of the Association for Assessment and Accreditation of Laboratory Animal Care (AAALAC). Two MTD studies were performed (a) a low dose study with doses ranging from 0.1, 0.5, 1 and 3 mg/kg and (b) a high dose study with doses ranging from 3, 5, 10 mg/kg. Dosing volume was determined based on body weight (10 ul/g) and PDCs were dissolved in 25 mM Histidine 10% sucrose pH 7 and administered i.v. at a single dose at day 0. The treatment and observation were conducted up to 7 days and MTD was defined by ≥20% body weight loss. Body weights were measured daily, death and observed clinical signs were recorded.
Doses of 3, 5, and 10 mg/kg were administered. MTD was defined by ≥20% body weight loss and body weight measured daily.

[2] = molecular target: T1, SORT1 on cells (HEK293 cells transiently transfected with / overexpressing SORT1); SORT1-expressing MDA-MB-231 … (UniProt Q99523 78-831, limits assumed); test: cell-based or functional assay
T1 sequence (looked up): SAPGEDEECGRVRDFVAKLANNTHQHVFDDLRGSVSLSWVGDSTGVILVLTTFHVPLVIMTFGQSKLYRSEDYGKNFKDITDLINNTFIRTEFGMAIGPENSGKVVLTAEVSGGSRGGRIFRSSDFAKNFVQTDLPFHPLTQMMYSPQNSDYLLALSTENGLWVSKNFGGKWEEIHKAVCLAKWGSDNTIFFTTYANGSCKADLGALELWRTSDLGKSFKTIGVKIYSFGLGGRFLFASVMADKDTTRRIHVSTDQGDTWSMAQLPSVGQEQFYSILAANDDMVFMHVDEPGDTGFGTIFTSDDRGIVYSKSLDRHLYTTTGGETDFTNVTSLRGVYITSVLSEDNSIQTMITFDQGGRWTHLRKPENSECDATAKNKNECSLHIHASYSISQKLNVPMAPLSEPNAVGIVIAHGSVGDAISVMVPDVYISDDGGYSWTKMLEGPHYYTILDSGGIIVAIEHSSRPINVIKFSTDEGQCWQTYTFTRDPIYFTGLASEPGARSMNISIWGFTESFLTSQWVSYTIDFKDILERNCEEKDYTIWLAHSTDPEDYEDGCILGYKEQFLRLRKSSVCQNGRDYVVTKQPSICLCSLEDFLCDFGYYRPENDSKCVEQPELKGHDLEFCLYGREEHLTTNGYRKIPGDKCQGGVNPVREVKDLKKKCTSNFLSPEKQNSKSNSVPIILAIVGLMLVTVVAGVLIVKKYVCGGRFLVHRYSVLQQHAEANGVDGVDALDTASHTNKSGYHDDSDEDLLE

mouse SORT1 (76-753)-His = molecular target: T2, mouse SORT1 (76-753)-His (mouse, UniProt Q6PHU5 76-753); test: SPR (Biacore 8K), SORT1 on CM5 chip, siRNA-peptide conjugate as analyte, 1:1 model
T2 construct: range 76-753; Amine-coupled to CM5 chip for SPR
T2 sequence (looked up): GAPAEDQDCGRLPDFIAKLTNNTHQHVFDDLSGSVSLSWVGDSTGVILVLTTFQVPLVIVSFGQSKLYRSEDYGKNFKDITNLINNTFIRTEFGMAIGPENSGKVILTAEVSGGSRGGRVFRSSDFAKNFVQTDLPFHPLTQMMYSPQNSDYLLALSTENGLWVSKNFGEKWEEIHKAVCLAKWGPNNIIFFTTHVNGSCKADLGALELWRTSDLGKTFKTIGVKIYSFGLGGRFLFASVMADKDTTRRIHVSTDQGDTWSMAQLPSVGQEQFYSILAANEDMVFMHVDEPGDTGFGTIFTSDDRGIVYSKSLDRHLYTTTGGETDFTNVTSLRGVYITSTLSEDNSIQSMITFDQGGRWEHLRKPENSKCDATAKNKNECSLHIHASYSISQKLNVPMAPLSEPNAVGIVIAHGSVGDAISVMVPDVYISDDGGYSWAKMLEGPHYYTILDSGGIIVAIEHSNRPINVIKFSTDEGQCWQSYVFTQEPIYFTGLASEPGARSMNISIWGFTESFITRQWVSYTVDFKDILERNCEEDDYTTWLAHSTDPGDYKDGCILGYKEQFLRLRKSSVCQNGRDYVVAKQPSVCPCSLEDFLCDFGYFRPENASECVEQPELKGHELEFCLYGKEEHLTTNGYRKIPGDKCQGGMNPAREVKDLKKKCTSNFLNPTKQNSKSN
Description: (§1) SPR analysis was performed on Series S CM5 chips (Cytiva) using a Biacore 8K instrument (Cytiva). Sensorgrams were double-referenced by subtracting the response on both a reference flow cell and a blank sample. Human SORT1 (78-755)-His (Acrobiosystems), human SORT1 (78-755)-His(GenScript), mouse SORT1 (76-753)-His (R&D Systems), rat SORT1 (76-752)-His (GenScript), and cyno SORT1 (76-753)-His (GenScript) were diluted to 20-60 μg/mL in 10 mM sodium acetate pH 4.5 buffer and immobilized onto Series S CM5 chips using amine coupling at a flow rate of 10 μL/min for 45-100 s.
(§2) Ten start-up cycles and a blank cycle preceded each analysis run. The runs were performed by sequential injections of analyte (0-20 nM, 3-fold serial dilutions) with a 90 s association and 900 s dissociation at a flow rate of 30 μL/min, followed by two regeneration cycles with 2 M MgCl2 for 90 s at a flow rate of 10 μL/min. […] Five start-up cycles and a blank cycle preceded each analysis run. The runs were performed by sequential injections of analyte (0-25 nM) with a 150 seconds (s) association and 300 s dissociation at a flow rate of 30 μL/min, followed by a regeneration with 2 M MgCl₂ for 200 s at a flow rate of 10 μL/min. The kinetic rate constants (kₐ and kd) and the equilibrium binding constant (Kd) were calculated using a 1:1 kinetic binding model on the Biacore Insight Evaluation Software (Cytiva).
(§3) SPR analysis was performed on Series S CM5 chips (Cytiva) using a Biacore 8K instrument (Cytiva). Sensorgrams were double-referenced by subtracting the response on both a reference flow cell and a blank sample. The SPR analysis was conducted using four different SORT1 species: Human SORT1, Mouse SORT1, Rat SORT1, and Cyno SORT1. The samples were prepared according to the general procedure described above herein. The kinetic rate constants (ka and […]) and the equilibrium binding constant (Kd) were calculated using a 1:1 kinetic binding model on the Biacore Insight Evaluation Software (Cytiva).

rat SORT1 (76-752)-His = molecular target: T3, rat SORT1 (76-752)-His (rat, UniProt O54861 76-752); test: as above
T3 construct: range 76-752; Amine-coupled to CM5 chip for SPR
T3 sequence (looked up): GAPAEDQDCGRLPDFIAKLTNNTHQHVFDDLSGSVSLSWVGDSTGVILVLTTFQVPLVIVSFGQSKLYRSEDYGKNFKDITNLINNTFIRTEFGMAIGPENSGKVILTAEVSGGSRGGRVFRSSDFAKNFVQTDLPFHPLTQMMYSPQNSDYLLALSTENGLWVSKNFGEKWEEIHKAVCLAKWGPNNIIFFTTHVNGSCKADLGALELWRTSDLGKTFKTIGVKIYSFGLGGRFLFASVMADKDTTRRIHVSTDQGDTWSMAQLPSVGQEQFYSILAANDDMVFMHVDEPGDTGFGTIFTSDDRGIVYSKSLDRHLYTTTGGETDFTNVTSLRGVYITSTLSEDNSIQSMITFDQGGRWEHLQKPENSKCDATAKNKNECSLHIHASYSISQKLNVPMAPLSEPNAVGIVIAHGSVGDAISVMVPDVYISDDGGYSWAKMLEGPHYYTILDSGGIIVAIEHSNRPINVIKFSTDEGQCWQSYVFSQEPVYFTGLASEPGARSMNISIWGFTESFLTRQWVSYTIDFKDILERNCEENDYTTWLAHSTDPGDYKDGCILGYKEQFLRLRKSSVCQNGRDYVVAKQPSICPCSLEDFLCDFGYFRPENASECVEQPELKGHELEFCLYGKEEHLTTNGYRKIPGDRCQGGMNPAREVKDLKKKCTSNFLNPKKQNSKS
Description: as §1, §2, §3

cyno SORT1 (76-753)-His = molecular target: T4, cyno SORT1 (76-753)-His (cyno, UniProt A0A2K5VHG2 74-751); test: as above
T4 construct: range 76-753; Amine-coupled to CM5 chip for SPR
T4 sequence: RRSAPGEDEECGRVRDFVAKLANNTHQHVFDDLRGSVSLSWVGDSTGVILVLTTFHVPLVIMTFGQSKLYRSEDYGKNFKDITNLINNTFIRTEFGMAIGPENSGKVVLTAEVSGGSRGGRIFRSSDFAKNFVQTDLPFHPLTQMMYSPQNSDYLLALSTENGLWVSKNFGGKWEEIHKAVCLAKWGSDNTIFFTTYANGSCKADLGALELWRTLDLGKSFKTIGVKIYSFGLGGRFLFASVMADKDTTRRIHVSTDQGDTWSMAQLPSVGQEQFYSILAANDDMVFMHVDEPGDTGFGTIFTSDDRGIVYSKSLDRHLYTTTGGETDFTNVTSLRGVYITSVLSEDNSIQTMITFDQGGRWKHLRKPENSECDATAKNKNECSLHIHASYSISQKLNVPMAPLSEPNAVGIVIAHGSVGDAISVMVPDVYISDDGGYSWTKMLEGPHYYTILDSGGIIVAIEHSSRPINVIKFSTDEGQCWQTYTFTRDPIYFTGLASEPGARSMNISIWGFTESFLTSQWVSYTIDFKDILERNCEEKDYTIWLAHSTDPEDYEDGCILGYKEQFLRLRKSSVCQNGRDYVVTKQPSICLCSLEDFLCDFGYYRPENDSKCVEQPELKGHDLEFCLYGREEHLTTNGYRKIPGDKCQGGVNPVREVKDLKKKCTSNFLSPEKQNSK
Description: as §1, §2, §3

With `CC[C@H](C)[C@@H]([C@@H](CC(=O)N1CCC[C@H]1[C@H](OC)[C@@H](C)C(=O)N[C@H](C)[C@@H](O)c1ccccc1)OC)N(C)C(=O)[C@@H](NC(=O)[C@H](C(C)C)N(C)C(=O)OCc1ccc(NC(=O)[C@H](CCCNC(N)=O)NC(=O)[C@@H](NC(=O)CCCC(=O)NCCC(=O)N(C)CC(=O)N(C)CC(=O)N(C)CC(=O)N(C)CC(=O)N[C@@H](CC(=O)O)C(=O)N[C@@H](CC(=O)O)C(=O)N2CCC[C@H]2C(=O)N[C@@H](CCCNC(=N)N)C(=O)N[C@@H](C)C(=O)N2CCC[C@H]2C(=O)N[C@@H](Cc2c[nH]c3ccccc23)C(=O)N2CCC[C@H]2C(=O)N[C@@H](C)C(=O)N[C@@H](CC(C)C)C(=O)N[C@@H](CCC(N)=O)C(=O)N[C@@H](CCCNC(=N)N)C(=O)N[C@@H](CC(C)C)C(=O)N[C@@H](C)C(=O)N[C@@H](CC(C)C)C(=O)N[C@@H](CCCNC(=N)N)C(=O)N[C@@H](CC(C)C)C(=O)O)C(C)C)cc1)C(C)C` [PRGN_RL_PDC] as the molecule, how does the toxicity [1] read?
The toxicity was “mild toxicity”.

B1: Peptide 2-GAPDH6-SPDP (peptide)
peptide: CXXXXXAPRWDAPLRDPALRQXX
modifications: N-terminal Ac; Cys 1 side chain in a disulphide with SPDP on the 5' end of the sense strand of GAPDH siRNA; 2: (bAla); 3-6: (Sar); 22: (B13); 23: (G48)
Which “GAPDH mRNA % knockdown compared to untreated cells (RT-qPCR), HEK293 + SORT1 - CQ” value (“GAPDH mRNA % knockdown” for short) [2] does the source give for B1 here?
Its value is 36%.

B2: SORT1 peptide 2 conjugate (peptide)
peptide: APRWDAPLRDPALRQ[Tle][Cba]
modifications: also: conjugated to siRNA targeting a housekeeping gene mRNA, linker and handle not given here
notes: also called SORT1 peptide 2 siRNA conjugate; Arb-SAR-Q15_PDC2
For B2, which Kd (mouse SORT1 (76-753)-His) is on record?
Its Kd is 8.56 nM.

And the Kd (rat SORT1 (76-752)-His)?
Its Kd is 14.6 nM.

And the Kd (cyno SORT1 (76-753)-His)?
Its Kd is 4.81 nM.

B3: SORT1 peptide 1 conjugate (peptide)
peptide: APRWDAPLRDPALRQLL
modifications: also: conjugated to siRNA, linker and handle not given here
notes: also called SORT1 peptide 1 siRNA conjugate
What does the source list for B3?
Kd (mouse SORT1 (76-753)-His): 30.2 nM; Kd (rat SORT1 (76-752)-His): 49.2 nM; Kd (cyno SORT1 (76-753)-His): 16.8 nM

B4: Peptide 2-GAPDH6-BCN (peptide)
peptide: XXXXXXAPRWDAPLRDPALRQXX
modifications: N-terminal 6-azidohexanoic acid joined by a triazole to hexyl-BCN on the 5' end of the sense strand of GAPDH siRNA; 1: (bAla); 2-5: (Sar); 21: (B13); 22: (G48)
With B4 as the molecule, how does the “GAPDH mRNA % knockdown” value [2] read?
The value was 47%.

B5: Peptide 2-GAPDH6-thiol (peptide)
peptide: XXXXXAPRWDAPLRDPALRQXX
modifications: not fully specified; N-terminal maleimide joined by a thioether to 6-mercaptohexanoic acid on the 5' end of the sense strand of GAPDH siRNA; 1: (bAla); 2-5: (Sar); 21: (B13); 22: (G48)
Which “GAPDH mRNA % knockdown” value [2] does the source give for B5 here?
The value was 40%.
